3 molecules from article PMC6613617, “Human DNA polymerase delta requires an iron–sulfur cluster for high-fidelity DNA synthesis” (Life Science Alliance, 2019) can be followed below.

Experiment [1] has as its target T1, N-terminally Flag-tagged POLD1 C1076S (human, UniProt P28340 1-1107, C1076S).
T1 construct: DNA polymerase delta catalytic subunit POLD1/p125, human; variant made by site-directed mutagenesis; also called CS; Pol δ-CS (bait subunit); source: Sf9 insect cells, baculovirus co-infection, in lysate; Flag-purified (Flag-M2 agarose, 3x Flag peptide elution); not shown: Flag, N-terminal, kept
T1 sequence (looked up): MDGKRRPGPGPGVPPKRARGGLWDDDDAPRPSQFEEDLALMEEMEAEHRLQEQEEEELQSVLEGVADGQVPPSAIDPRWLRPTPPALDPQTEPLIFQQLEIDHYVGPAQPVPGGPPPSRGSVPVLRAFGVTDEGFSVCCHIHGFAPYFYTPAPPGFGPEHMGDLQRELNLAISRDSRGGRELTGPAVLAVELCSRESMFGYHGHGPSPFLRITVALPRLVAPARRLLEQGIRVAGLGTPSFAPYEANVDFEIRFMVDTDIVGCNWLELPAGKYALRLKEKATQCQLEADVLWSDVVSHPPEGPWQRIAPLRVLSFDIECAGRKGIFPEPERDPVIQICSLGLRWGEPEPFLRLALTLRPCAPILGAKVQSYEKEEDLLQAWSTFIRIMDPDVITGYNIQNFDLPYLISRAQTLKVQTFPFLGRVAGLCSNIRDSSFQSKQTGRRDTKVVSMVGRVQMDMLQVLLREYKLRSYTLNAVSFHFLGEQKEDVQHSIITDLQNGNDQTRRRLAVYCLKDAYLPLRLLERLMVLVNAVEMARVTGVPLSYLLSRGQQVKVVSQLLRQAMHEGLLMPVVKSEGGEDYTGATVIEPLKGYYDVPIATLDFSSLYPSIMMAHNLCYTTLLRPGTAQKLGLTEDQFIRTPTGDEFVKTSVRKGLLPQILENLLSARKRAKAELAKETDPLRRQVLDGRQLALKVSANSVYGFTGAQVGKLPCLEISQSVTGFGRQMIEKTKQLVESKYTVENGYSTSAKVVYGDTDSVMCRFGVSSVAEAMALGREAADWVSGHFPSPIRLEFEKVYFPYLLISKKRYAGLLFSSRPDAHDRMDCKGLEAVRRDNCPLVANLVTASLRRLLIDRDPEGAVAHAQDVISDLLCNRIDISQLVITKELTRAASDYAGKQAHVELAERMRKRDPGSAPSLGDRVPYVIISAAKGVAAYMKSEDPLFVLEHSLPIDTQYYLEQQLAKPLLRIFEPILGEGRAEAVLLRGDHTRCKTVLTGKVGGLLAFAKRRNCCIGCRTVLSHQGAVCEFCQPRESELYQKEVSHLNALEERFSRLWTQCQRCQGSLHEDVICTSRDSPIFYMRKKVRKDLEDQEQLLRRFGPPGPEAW
Nature of the experiment: pull-down; Flag-pull down (Flag-M2 agarose) from lysate of Sf9 cells co-expressing Flag-POLD1 variant, POLD2, POLD3, POLD4 and untagged PCNA; 50 mM Tris-HCl pH 8.0, 200 mM NaCl, 0.25% NP-40, 4°C; SDS-PAGE with protein stain. The settings on record: partners not purified.

In experiment [2] the target is T2, N-terminally Flag-tagged POLD1 (catalytic subunit of human DNA polymerase delta), wild type (human, UniProt P28340 1-1107).
T2 construct: DNA polymerase delta catalytic subunit POLD1/p125, human; also called p125; Flag-POLD1; source: Sf9 insect cells, baculovirus co-infection, in lysate; Flag-purified (Flag-M2 agarose, 3x Flag peptide elution); not shown: Flag, N-terminal, kept
T2 sequence (looked up): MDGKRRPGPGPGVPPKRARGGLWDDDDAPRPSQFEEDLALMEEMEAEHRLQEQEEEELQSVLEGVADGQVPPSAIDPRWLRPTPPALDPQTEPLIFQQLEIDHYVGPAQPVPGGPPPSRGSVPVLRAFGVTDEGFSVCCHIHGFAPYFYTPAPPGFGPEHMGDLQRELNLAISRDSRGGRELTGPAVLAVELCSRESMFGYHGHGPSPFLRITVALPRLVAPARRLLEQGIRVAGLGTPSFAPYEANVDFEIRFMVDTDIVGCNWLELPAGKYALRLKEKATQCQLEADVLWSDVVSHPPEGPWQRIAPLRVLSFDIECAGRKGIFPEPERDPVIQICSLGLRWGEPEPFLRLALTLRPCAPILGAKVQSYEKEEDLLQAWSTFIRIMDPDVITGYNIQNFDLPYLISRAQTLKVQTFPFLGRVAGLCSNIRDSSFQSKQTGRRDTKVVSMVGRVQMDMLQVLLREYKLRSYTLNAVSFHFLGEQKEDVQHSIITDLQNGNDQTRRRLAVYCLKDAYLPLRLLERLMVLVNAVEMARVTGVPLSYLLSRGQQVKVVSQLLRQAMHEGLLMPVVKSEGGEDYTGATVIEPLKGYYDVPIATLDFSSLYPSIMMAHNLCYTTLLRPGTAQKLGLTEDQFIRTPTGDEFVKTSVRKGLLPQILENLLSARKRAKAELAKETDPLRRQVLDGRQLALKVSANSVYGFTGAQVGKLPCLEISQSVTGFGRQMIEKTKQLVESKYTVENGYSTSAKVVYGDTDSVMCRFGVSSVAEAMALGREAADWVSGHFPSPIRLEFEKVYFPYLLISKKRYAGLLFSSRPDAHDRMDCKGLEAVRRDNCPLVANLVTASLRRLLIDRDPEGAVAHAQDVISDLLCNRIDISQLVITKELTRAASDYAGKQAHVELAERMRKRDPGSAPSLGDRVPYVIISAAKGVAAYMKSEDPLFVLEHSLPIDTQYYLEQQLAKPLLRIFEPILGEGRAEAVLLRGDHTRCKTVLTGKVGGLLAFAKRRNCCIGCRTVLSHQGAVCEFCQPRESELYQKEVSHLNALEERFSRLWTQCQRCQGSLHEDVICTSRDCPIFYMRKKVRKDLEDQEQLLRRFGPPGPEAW
The description is as above. As to conditions: partners not purified.

B1: POLD2 (accessory subunit of human DNA polymerase delta), untagged (natural protein)
chain: not shown
notes: DNA polymerase delta subunit 2 POLD2/p50, human; Expressed from a cassette with self-cleaving T2A peptides; A T2A remnant probably stays on its C-terminus (my surmise); also called p50; source: Sf9 insect cells, baculovirus co-infection (POLD2-T2A-POLD3-T2A-POLD4 or POLD2-T2A-POLD3 cassette), in lysate; co-purified with Flag-POLD1
On to B1, for which the binding result in experiment [1] is given as “binds”.

B2: POLD4 (accessory subunit of human DNA polymerase delta), untagged (natural protein, UniProt Q9HCU8 1-107, looked up)
chain: MGRKRLITDSYPVVKRREGPAGHSKGELAPELGEEPQPRDEEEAELELLRQFDLAWQYGPCTGITRLQRWCRAKQMGLEPPPEVWQVLKTHPGDPRFQCSLWHLYPL
notes: DNA polymerase delta subunit 4 POLD4/p12, human; Expressed from a cassette with self-cleaving T2A peptides; A residue of the T2A probably stays on its N-terminus (my surmise); also called p12; source: Sf9 insect cells, baculovirus co-infection (POLD2-T2A-POLD3-T2A-POLD4 cassette), in lysate; co-purified with Flag-POLD1
In the case of B2, the binding result in experiment [1] and in experiment [2] was “binds” in each case.

B3: POLD3 (accessory subunit of human DNA polymerase delta), untagged (natural protein, UniProt Q15054 1-466, looked up)
chain: MADQLYLENIDEFVTDQNKIVTYKWLSYTLGVHVNQAKQMLYDYVERKRKENSGAQLHVTYLVSGSLIQNGHSCHKVAVVREDKLEAVKSKLAVTASIHVYSIQKAMLKDSGPLFNTDYDILKSNLQNCSKFSAIQCAAAVPRAPAESSSSSKKFEQSHLHMSSETQANNELTTNGHGPPASKQVSQQPKGIMGMFASKAAAKTQETNKETKTEAKEVTNASAAGNKAPGKGNMMSNFFGKAAMNKFKVNLDSEQAVKEEKIVEQPTVSVTEPKLATPAGLKKSSKKAEPVKVLQKEKKRGKRVALSDDETKETENMRKKRRRIKLPESDSSEDEVFPDSPGAYEAESPSPPPPPSPPLEPVPKTEPEPPSVKSSSGENKRKRKRVLKSKTYLDGEGCIVTEKVYESESCTDSEEELNMKTSSVHRPPAMTVKKEPREERKGPKKGTAALGKANRQVSITGFFQRK
notes: DNA polymerase delta subunit 3 POLD3/p66, human; Expressed from a cassette with self-cleaving T2A peptides; T2A remnants probably stay on its ends and differ between the two cassettes (my surmise); also called p66; source: Sf9 insect cells, baculovirus co-infection (POLD2-T2A-POLD3-T2A-POLD4 or POLD2-T2A-POLD3 cassette), in lysate; co-purified with Flag-POLD1
As to B3, the binding result in experiment [1] and in experiment [2] was “binds” in each case.
